This note sets out measurements from article PMC11078986, “Structural basis and synergism of ATP and Na^+ activation in bacterial K^+ uptake system KtrAB” (Nature Communications, 2024).

T1: BsKtrA (Bacillus subtilis, UniProt O32080)
T1 construct: gene ktrA; tag-less BsKtrA (octamer) in the BsKtrAB complex; with BsKtrB
T1 sequence (O32080 1-222): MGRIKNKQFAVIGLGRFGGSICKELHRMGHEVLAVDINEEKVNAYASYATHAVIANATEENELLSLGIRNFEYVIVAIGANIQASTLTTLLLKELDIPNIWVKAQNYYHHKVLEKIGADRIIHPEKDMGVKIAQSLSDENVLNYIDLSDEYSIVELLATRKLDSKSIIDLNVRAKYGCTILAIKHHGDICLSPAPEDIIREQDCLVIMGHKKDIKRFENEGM
T1 sequence (O32081 1-445 partner): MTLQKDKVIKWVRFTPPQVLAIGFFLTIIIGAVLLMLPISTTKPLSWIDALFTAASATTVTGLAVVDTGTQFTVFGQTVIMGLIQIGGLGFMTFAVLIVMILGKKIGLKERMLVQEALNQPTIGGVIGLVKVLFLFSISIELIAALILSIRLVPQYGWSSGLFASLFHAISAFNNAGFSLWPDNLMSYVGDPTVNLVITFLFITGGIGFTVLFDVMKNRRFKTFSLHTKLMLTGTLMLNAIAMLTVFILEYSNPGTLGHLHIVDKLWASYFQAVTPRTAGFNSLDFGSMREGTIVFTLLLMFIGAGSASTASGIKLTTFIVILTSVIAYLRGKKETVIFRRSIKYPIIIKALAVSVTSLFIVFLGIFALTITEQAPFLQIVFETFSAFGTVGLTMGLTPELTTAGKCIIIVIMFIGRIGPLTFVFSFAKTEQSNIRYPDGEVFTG

B1: KtrA from Bacillus subtilis (BsKtrA) (natural protein)
chain: T1 sequence (O32080 1-222)
notes: KtrA, regulatory RCK subunit of the K+ uptake system KtrAB, Bacillus subtilis; tag-less; Octameric ring (tetramer of homodimers); Used with ATP, with ADP or as apo protein; also called ATP-BsKtrA; ADP-BsKtrA; source: E. coli BL21(DE3), purified (anion exchange, N6-hexyl-ATP agarose, dialysis, SEC)
B2: KtrB from Bacillus subtilis (BsKtrB) (natural protein)
chain: T1 sequence (O32081 1-445 partner)
notes: KtrB, transmembrane K+ permeation subunit of the K+ uptake system KtrAB, Bacillus subtilis; Membrane protein dimer in detergent (DDM, or 6-cyclohexyl-1-hexyl-beta-D-maltoside for cryo-EM); source: E. coli C43 (DE3), purified (DDM extraction, Ni-NTA, TEV cleavage, second Ni-NTA, SEC); not shown: His tag, N-terminal, cleaved

For one series, the target named is T1, BsKtrA. In words: cryo-EM structure of ADP-BsKtrAB at […] Å (Structure III). In kind it is binding.
For series [1], the target named is B2. In words: cryo-EM structure; ATP-BsKtrAB (Structures I, II, IIa, IIb); BsKtrA and BsKtrB mixed 2:1 with 1 mM ATP, complex taken from SEC; Cryo-EM Buffer (20 mM Tris-HCl pH 8.0, 70 mM NaCl, 30 mM KCl, 0.75 mM 6-cyclohexyl-1-hexyl-beta-D-maltoside) with 1 mM ATP and 2 mM MgCl2, or 1 mM ATP, 2 mM EDTA and 1 mM EGTA; KtrB2A8B2 assembly. Conditions: both partners purified.

Series [2] concerns the molecule itself. The series is described as above.

As for `Nc1ncnc2c1ncn2[C@@H]1O[C@H](COP(=O)(O)OP(=O)(O)O)[C@@H](O)[C@H]1O` [ADP], the “cryo-EM structure of ADP-BsKtrAB at 2.8 Å (Structure III)” value at BsKtrA was “ATP and ADP share the same binding site located at the intra-dimer interface of KtrA RCK_N subdomains”.

Broadly, the stoichiometry N is a count of units in the complex or per binding partner. For B1, the binding result in series [1] is given as “binds”. The “stoichiometry N” value in series [2] was 8. With B2, the “stoichiometry N” value in series [2] stood at 2.
